Laboratory results as given in the nanobody polyreactivity screen of Harvey et al. (2022).

Experiment: yeast display, Sf9 membrane polyspecificity reagent, FACS + sequencing; frameworks hold sequencing errors
Outline: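 Galactose-induced (36–48 hours) yeast carrying a synthetic nanobody display library were exposed to 10% biotinylated, detergent-solubilized Sf9 membrane reagent at 4 °C for 1 hour. FACS followed streptavidin microbead enrichment, using low and high (top ~1%) gates for expression (anti-HA) and reagent binding (streptavidin). Colony PCR, MiSeq 2 × 250 sequencing and CDR-length filtering followed. Labels for polyreactivity reflect the gate of origin.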

| Sequence | polyreactivity (PSR sort gate) |
| --- | --- |
| QVQLVESGGGLVQAGGSLRLSCAASGRTFVGYVMGWYRQAPGKERELVAAISKIGGRTYYADSVKGRFTISRDNAKNTVYLQMNSLKTEDTAVYYCAAERTKSIKLPRPGSMDYWGQGTQVTVSS | low polyreactivity |
| QDQLVESGGGLVQAGGSLRLSCAASGFTFYLYTMGSYRQAPGKERELVATITSDGGTNYADSVKGRFTISRDNAKNTVYLQMNSLKPEDTAVYFCNAASRRGSRKQAKYDYWGQGTQVTVSS | low polyreactivity |
| QVQLVESGGGLVQAGGSLRLSCAASGRTFSQYAMGWYRQAPGKERELVAPISWSGGSTYYADSVKGRFTISRDNAKNTVDLQMNSLKPEDTAVFYCAAVGKGSSRSSYPVLYDYWGQGTQVTVSS | low polyreactivity |
| QVQLVESGGGLVQAGGSLRLSCAPSGSTFRVYGMGWYRQAPGKETELVAVIRWRGGRTSYADSVKGRFTISRDNAKNTVYLQMNSLKPEDTAVYYCAAAYWNDWSQYDYWGQGTQVTVSS | high polyreactivity |
| QVQLVESGGGLVQAGGSLRLSCAASGGIFTYYAMGWYRQAPGKERELVAAISASGGSTYYADSVKGRFTISRDNAKNTVYLQMNSLKPEDTAVYYCAAGLPYGYGYDYWGQGTQVTVSS | low polyreactivity |
| QVQLVESGGGLVQAGGSLRLSCAASGSIFAYNAMGWYRQAPGKVREFVAVITRSDDSTYADSVKGRFTISRDNAKNTVYLQMNSLKPEDTAVYYCAAQPFDIDGGYRVDYWRQGTQVTVSS | low polyreactivity |
| QVQLVESGGGLVQAGGSLRLSCAASGSIFGYNAMGWYRQAPGKERELVAAIRISTDNTYYADSVKGRFTISRDNAKNTVYLQMNSLKPEDTAVYYCAADEYWWGYYYWGQGSQVTVSS | high polyreactivity |
| QVQLLESGGGLVQAGGSLRLSCAASGRIFPRYAMGWYRQAPGKERELVASITRRGGSTYYADSVKGRFTISRDNAKNTVYLQMNSLKPEDTAVYYCNALPRAQSYELYNYWGQGTQVTVSS | high polyreactivity |
| QVQLVESGGGLVQAGGSLRLSCAASGSTFYANLMGWYRQAPGKEWEFVAAIDGSGGRTYYADSVKGRFTISRDNAKNTVYLQMNSLKPEVTAVYYCAKKRIVPVIQFGRDYNYWGQGKQVTVSS | high polyreactivity |
| QVQLVESGGGLVQAGGSLRLSCAASGLILVYYAMGWYRQAPGKERELVAAITPGGSTKYAESVKGRFTISRDNAKNTVYLQMNSLKPEDTAVYYCNALSGPYWYYVYQSHQDDYWGQGSQVTVSS | low polyreactivity |
| QVQLVESGGGLVQAGGSLRLSCAASGFTFASNVMGWYRQAPGKERELVAAITSGASTNYADSVKGRFTISRDNAKNTVYLQMNSLKPEDTAVYYCAAGRQWYVFYEFDYWGQGTQVTVSS | high polyreactivity |
| QVQLVESGGGLVQAGGSLRLSCAAFGFTFNAYALGWYRQAPGKERELVAGITSSGGGTYYADSVKGRFTISRDNAKNTVYLEMNSLKPEDTAVYYCNTYSYLFSRYGYWGQGTQVTVSS | high polyreactivity |
| QVQLVESGGGLVQAGGSLRLSCAASGSTLYRNAMGWYRQAPGKERELVAAINYRGTRTYYADSVKGRFTISRDNAKNTVYLQMNSLKPEDTAVYYCAKDYSQFVTYPYDYWGQGTQVTVSS | low polyreactivity |
| QVQLQESGGGLVQAGGSLRMSCAASGTISPLPAMGWYRQAPGKDRDFVAGIDTGAITNYADSVKGRFTISRDNAKNTVYLQMNSLKPEDTAVYYCAVFPAAYDYYERYYTYWGQGTQVTVSS | low polyreactivity |
| QVQLVESGGGLVQAGGSLRLSCAASGRTFSRNAMGWYRQAPGKERELVAAISQRGVSTYYADSVKGRFTISRDNAKNTVYLQMNSLKPEDTAVYYCNTRGTYRYDYWGQGTQVTVSS | low polyreactivity |
| QVQLVESGGGLVQAGGSLRLSCAATGRIFKTYAMGWYRQAPGKERELVAAISWTVVSTHYADSVKGRFTISRDNAKNTVYLQMNSLKPEDTAVYYCNADTPLRHRTWNRKVTDFEYDYWGQGTQVTVSS | low polyreactivity |
| QVQLVESGGGLVQAGGSLRLSCAASGIIFGPYAMGWYIQAPGKERELVAAITDGGITYYADSVKGRFTISRDNAKNTVYLQMNSLKPEDTAVYYCAAESGYPVYTYVSSGDYWGQGTQVTVSS | low polyreactivity |
| QVQLVESGGGLVQAGGSLRLSSAASGSIFDYYAMGWSRQAPGKERELVAAISGSGGSTYYADSVKGRFTISRDNAKNTVYLQMNSLKPEDTAVYYCNVYYRRRYDYWGQGTQVTVSS | high polyreactivity |
| QVQLVESGGGLVQAGGSLRLSCAASGRTFSLNAMGWYRQAPGKEREFVAAISSTGGSTYYADSVKGRFTISRDNAKNTVYLQMNSLKPEDTAVYYCAKRSVYRTALGRYSVAYDYWGQGTQVTVSS | high polyreactivity |
| QVQLVESGGGLVQAGGSLRLSCAASGYIFIRNAMGWYRPAPGKDRELVAAISWTGGNTYYADSVKGRFTISRDNAKNTVYLQMNSLKPEDTAVYYCAALRSVFKSFRTTYVRYDYWGQATQVTVSS | high polyreactivity |
| QVQLVESGGGLVQAGGSLRLSCAASGSTFTVNGMGWYRQAPGKERELVASITWSGGSTYYADTVKGRFTISRDNAKNTVYLQMNSLKPEDTAVYYCAADEKLYITGYDYWGQGTQVTVSS | low polyreactivity |
| QVQLVESGGGLVQAGGSLRLSCAASGRIFTNYAMGWYRQAPGKERELVAAINWDGGSTYYADSVKGRFTISRDNAKNTVYLQMNSLKPEDTAVYYCAAQGGLSEFDYWGQGTQVTVSS | low polyreactivity |

| Sequence | polyreactivity (PSR sort gate) |
| --- | --- |
| QVQLVESGGGLVQAGGSLRLSGAASGRNFSTNAMGWYRPAPGKERELVAAITSGGNTYADSVKGRFTISRDNAKNTVYLQMNSLKPEDTAVYYCAARLYWGRYNYWGQGTQVTVSS | high polyreactivity |
| QVHLVESGGGLVQAGGSLRLSCAASGRIFYANDMGWYRQAPGKERELVAAITNTVSTTYADSVKGRFTISRDNAKNTVYLQMNSLKTEDTAVYYCNADDPYVPKADMGYWGQGTQVTVSS | low polyreactivity |
| QVQLVESGGGLVQAGGSLRLSCAASGSTFWYYAMGWYRQAPGKERELVADITYSGVSTYYADSVKGRFTISRDNAKNTVYLQMNSLKPEDTAVYYCNADWGSVNGYSGYYYWGQGTQVTVSS | low polyreactivity |
| QVQLVESGGGLVQAGGSLRLSCAASGRTFNGYAMGWYRQAPGKERELVAAISSSGSTNYADSVKGRFTISRDNAKNTVYLQMNSLKPEDTAVYYCAAEYYAYESVEYDYWGQGTQVTVSS | low polyreactivity |
| QVQIVESGGGLVQAGGSLRLSCAASGRTFWSYAMVWYRPAPGKEWELVATIKDSDGSTYADSVKGRFKISRDNAKNTVYLQMNSLKPEDTAVYYWIAKTRAGYYFGYGYWGQVTQVTVSS | low polyreactivity |
| QVQLVESGGGLVQAGGSLRLSCAASGSIFASNTMGWYRQAPGKERELVAGITKIGSSTYYADSVKGRFTISRDHAKNTVYLQMNSLKPEDTSVYYSNAYGPNIYSSRYDYWGQGTQVTLSS | low polyreactivity |
| QVQLVESGGGLVQAGGSLRLSCAASGSTFGNNAMGWYRQAPGKERELVAAITFRGTSTYADSVKGRFTISRDNAKNTVSLQMNSLKPEDTAVYYCAAVVYFVSYRFYYWGQGTQVTVSS | high polyreactivity |
| PVQLVESGGGLVQAGGSLRLSCAASGRIFAYYAMGWYRQATGKERELVAAITRRGSTNYADSVKGRFTISGDNAKNTVYLQMNSLKQEVTAFYYCAARDAIYGSDYWGQGTQVNVSS | high polyreactivity |
| QVQLVESGGGLVQAGGSLRLSCAASGSTFSGNAMGWYRQAPGKERELVAAINSVRTYYADSVKGRFTISRDNAKNTVYLQMNSLKPEDTAVYYCAARQGYSSRYPAKGYYWGQGTQVTVSS | high polyreactivity |
| QVQLVESGGGLVQAGGSLRLSCAASGFIFDEYAMGWYRQAPGKERELVAAISWSGSRTYYADSVKGRFTISRDNAKNTVYLQMNSLKPQDTAVDYCAKVTAVGAGRRNYWGQGTQVTVSS | low polyreactivity |
| QVQLVESGGGLVQAGGSLRLSCAASGRIFYSNAMGWYRQAPGKERELVATISTGGSTYADSVKGRFTISRDNAKNTVYLQMNSLKPEETAVYYCAVDEWRWRVGAVAYYYWGQGTQVTVSS | low polyreactivity |
| QVQLVESGGGLVQAGGSLRLSCAASGITFEGYAMGRYRQAPGKERELVAAITGSGSTTYYADSVKGRFTISRDNAKNTVYLQMNSLKPEDTAVYYCAADVSYKLYWGQGTQVTVSS | low polyreactivity |
| QVQLVESGGGLVQAGGSLRLSCAASGSTFDYYAMGWYRQAPGKERELVAAISRTGGRTYYADSVKGRFTISRDNAKNTVYLQMNSLKPEDTAVYYCNAVTPIGGGDYDYWGEGTQVTVSS | low polyreactivity |
| QVQLVESGGGLVQAGGSLRLSCAASGSTFGFYAMGWYRPAPGKERELVAAISWSTTSTYYADSVKGRFTISRDNAKNTVYLQMNSLKPEDTAVYYCAAEEWYLWYYYWGQGTQVTVSS | high polyreactivity |
| QDQLVESGGGLVQAGGSLRLSCAASGSTFPFYAMGWDRQAPGKERELVAAITSGGSTYADSVKGRFTISRDNAKNTVYLQMNSLKPEDTAVYYCAAVGWFADCLFSDIKGYSWGQGTPVTVSS | low polyreactivity |
| QVQIVESGGGLVQAGGSIRLSCAASGTTFNLYAMGWYRQAPGKERQLVAVISWSGGSTYYADSVKGRFTISRDNAKNTVYLQMNSLKPEDTAVYYCAAEYYQWLYPYNEYDYWGQGTQVTVSS | high polyreactivity |
| QVQLVESGGGLVQAGGSLRLTCAASGYTFNYYAKGWYRQAPGKERELVAAIDWSDGTTYYADSVKGRFTISPDYAKNTVYLQMNSLKPEDTAVYYCAASLSQSEYDYWGQGTLVTVSS | low polyreactivity |
| QGQLVESGGGLVQAGGSLRLSSAASGSTFVYAMGWYRQAPGKERVLVASISWSDSSTYYADSVKGRFTISRDNAKNTVYLQMNSQKREDTAVYYGYADQGTRDSDYWGQGTQGTVSS | low polyreactivity |
| QVQLVESGGGLVQAGGSLRVSCAASGFIFRRYAMGWYRQAPGKERELVAAIRTNSGSTYYADSVKGRFTISRDNAKNTVYLQMNSLKPEDTAVYYCATGQVYRTVSWLYNYWGQGTQVTVSS | high polyreactivity |
| QVQLVESGGGLVQAGGTLRLSCAASGLTFKSYDMGWYRHAPGKERELVAAITSGVSTHYADSVKGRFTISRDNAKNTVYLQMNSLKPEDTAVYYCAADYSWYDPYWIMDYWGQGTQVTVSS | low polyreactivity |
| QVQLVESGGGLVQAGGSLRLSCAASGSIFYRYAMGWSRQAPGKERELVAAISSGSSTHYADSVKGRFTMSRDNAKNTVYLQMNSLKPEDTAVYYCAARYRAYTSTRRFDYWGQGTQVTVSS | high polyreactivity |
